Changes are numbered by the printed parent chain. Numbers in names are those of the source.
B1: PfGrx1 (wild type glutaredoxin) C32S (protein)
chain: MAGTSEAVKKWVNKIIEENIIAVFAKTECPYSIKAISILKGYNLNSHMHVENIEKNPDMANIQAYLKELTGKSSVPRIFINKDVVGGCDDLVKENDEGKLKERLQKLGLVN
B2: PfGrx1 (wild type glutaredoxin) C29S; C32S (protein)
chain: B1 chain with C29S

Biological target: PfSAHH (recombinant S-adenosyl-L-homocysteine hydrolase), P50250
Assay: SPR
Settings: chain shown with the change; Maximum response at end of analyte injection; SAHH on the sensor surface oxidized with 0.5 mM DTNB; 30 µl of analyte, 10 µM in HBS buffer; pre-injection …; parent: est. 93; read off a plot

Sequence of PfSAHH (recombinant S-adenosyl-L-homocysteine hydrolase), P50250 (P50250 whole entry): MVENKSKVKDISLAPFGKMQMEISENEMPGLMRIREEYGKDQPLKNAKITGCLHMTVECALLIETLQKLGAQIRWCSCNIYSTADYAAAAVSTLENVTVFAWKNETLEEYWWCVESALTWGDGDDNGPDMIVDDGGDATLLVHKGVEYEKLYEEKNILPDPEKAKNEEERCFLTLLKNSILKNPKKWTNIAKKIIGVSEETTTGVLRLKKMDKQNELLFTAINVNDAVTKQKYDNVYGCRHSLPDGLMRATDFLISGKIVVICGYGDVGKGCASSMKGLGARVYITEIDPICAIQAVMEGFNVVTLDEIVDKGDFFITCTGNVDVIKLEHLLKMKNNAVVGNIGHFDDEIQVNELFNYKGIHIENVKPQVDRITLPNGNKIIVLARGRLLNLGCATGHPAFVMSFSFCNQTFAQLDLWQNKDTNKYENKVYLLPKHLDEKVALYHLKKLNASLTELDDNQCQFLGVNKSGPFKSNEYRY

| Binder | response (RD (normalized)) |
| --- | --- |
| B1 | 98 |
| B2 | 59 |

Reference: article PMC2660430
